How the values were obtained:
cyno MSLN = target: T1, cyno MSLN (Macaca fascicularis (cynomolgus)); assay: Octet BLI; bsAb on anti-human Fc sensor, cyno MSLN as analyte, one concentration
T1 construct: soluble antigen for Octet; also called cynomolgus MSLN

human MSLN antigen = target: T2, human MSLN antigen (human, UniProt Q13421 296-580, limits assumed); assay: Octet BLI; bsAb on anti-human Fc sensor, human MSLN as analyte, one concentration
T2 construct: Soluble antigen for BLI; also called Mesothelin; MESO
T2 sequence (Q13421 other isoform, or with tags, fused parts or gaps limits assumed): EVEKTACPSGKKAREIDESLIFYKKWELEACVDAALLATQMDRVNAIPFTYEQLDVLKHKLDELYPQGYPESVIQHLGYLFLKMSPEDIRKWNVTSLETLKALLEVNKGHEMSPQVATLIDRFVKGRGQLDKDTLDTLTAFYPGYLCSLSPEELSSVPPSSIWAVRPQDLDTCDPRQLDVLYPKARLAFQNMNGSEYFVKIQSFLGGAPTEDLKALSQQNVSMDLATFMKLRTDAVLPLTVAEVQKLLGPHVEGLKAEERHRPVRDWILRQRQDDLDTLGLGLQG
Description: Variants of MESO-C were engineered by introducing point substitutions into the variable heavy region (VH) and the variable light region (VL) to generate 11 VH variants and 16 VL variants (sequences for which are depicted in FIG. 18 as H1.1-H1.13 and in FIG. 19 as L1.1-L1.18). An additional 4 VL variants were generated by combining useful point substitutions (sequences for which are depicted in FIG. 19 as L1.19-L1.22). WT and variant variable heavy regions were paired with WT and variant variable light regions to generate variant variable regions (Fvs) which were produced in the context of anti-MSLN×anti-CD3 bispecific antibodies. The bispecific antibodies were screened for MSLN binding affinity using Octet®, a BioLayer Interferometry (BLI)-based method. Experimental steps for Octet® generally include the following: Immobilization (capture of ligand to a biosensor); Association (dipping of ligand-coated biosensors into wells containing the analyte); and Dissociation (returning of biosensors to well containing buffer). In an initial screening, anti-human Fc sensors were used to capture the bispecific mAbs and dipped into human MSLN antigen (one concentration to screen large library). The resulting dissociation constant of illustrative variants (KD), association rate (kₐ), dissociation rate (kd), as well as sensorgram response are depicted in FIG. 20. In further screening of favorite variants identified in the initial screen (and combination variants), bispecific mAbs were dipped into multiple concentrations of human MSLN antigen, data for which are depicted in FIG. 21 (from various screens).

| Binder | Kd (cyno MSLN) [pM] | Response (cyno MSLN) | koff (cyno MSLN) [s⁻¹] | kon (cyno MSLN) [M⁻¹ s⁻¹] | Kd (human MSLN antigen) [pM] | Response (human MSLN antigen) | koff (human MSLN antigen) [s⁻¹] | kon (human MSLN antigen) [M⁻¹ s⁻¹] |
| --- | --- | --- | --- | --- | --- | --- | --- | --- |
| XENP31701 (bispecific antibody, VH WT, VL WT; also called MESO-C H1_L1; copies: 1 + 1 + 1) heavy: QVQLVQSGAEVKKPGASVKVSCKASGYTFTSYWMHWVRQAPGQGLEWMGMIHPNSDNTIYYEKFQGRVTMTVDKSISTAYMELSRLRSDDTAVYYCAIIITPVVPKFDYWGQGTLVTVSSASTKGPSVFPLAPSSKSTSGGTAALGCLVKDYFPEPVTVSWNSGALTSGVHTFPAVLQSSGLYSLSSVVTVPSSSLGTQTYICNVNHKPSDTKVDKKVEPKSCDKTHTCPPCPAPPVAGPSVFLFPPKPKDTLMISRTPEVTCVVVDVKHEDPEVKFNWYVDGVEVHNAKTKPREEEYNSTYRVVSVLTVLHQDWLNGKEYKCKVSNKALPAPIEKTISKAKGQPREPQVYTLPPSREEMTKNQVSLTCDVSGFYPSDIAVEWESDGQPENNYKTTPPVLDSDGSFFLYSKLTVDKSRWEQGDVFSCSVMHEALHNHYTQKSLSLSPGK scFv-Fc: not shown light: DIVMTQSPDSLAVSLGERATINCKASHDVGTSVAWYQQKPGQSPKLLIYWASTRHTGVPDRFTGSGSGTDFTLTISSLQAEDVAVYFCQQYSSYPLTFGAGTKLEIKRTVAAPSVFIFPPSDEQLKSGTASVVCLLNNFYPREAKVQWKVDNALQSGNSQESVTEQDSKDSTYSLSSTLTLSKADYEKHKVYACEVTHQGLSSPVTKSFNRGEC | 93.8 | 0.737 | 5.74e-05 | 612000 | 80.5 | 0.86 | 4.69e-05 | 583000 |
| XENP32550 (bispecific antibody, 1+1 Fab-scFv-Fc bsAb; VH S31G, VL WT (Kabat); also called MESO-C H1.1_L1) Fab-Fc heavy chain (anti-MSLN VH): QVQLVQSGAEVKKPGASVKVSCKASGYTFTGYWMHWVRQAPGQGLEWMGMIHPNSDNTIYYEKFQGRVTMTVDKSISTAYMELSRLRSDDTAVYYCAIIITPVVPKFDYWGQGTLVTVSSASTKGPSVFPLAPSSKSTSGGTAALGCLVKDYFPEPVTVSWNSGALTSGVHTFPAVLQSSGLYSLSSVVTVPSSSLGTQTYICNVNHKPSDTKVDKKVEPKSCDKTHTCPPCPAPPVAGPSVFLFPPKPKDTLMISRTPEVTCVVVDVKHEDPEVKFNWYVDGVEVHNAKTKPREEEYNSTYRVVSVLTVLHQDWLNGKEYKCKVSNKALPAPIEKTISKAKGQPREPQVYTLPPSREEMTKNQVSLTCDVSGFYPSDIAVEWESDGQPENNYKTTPPVLDSDGSFFLYSKLTVDKSRWEQGDVFSCSVMHEALHNHYTQKSLSLSPGK scFv-Fc heavy chain (anti-CD3 H1.30_L1.47): not shown light chain (anti-MSLN VL): DIVMTQSPDSLAVSLGERATINCKASHDVGTSVAWYQQKPGQSPKLLIYWASTRHTGVPDRFTGSGSGTDFTLTISSLQAEDVAVYFCQQYSSYPLTFGAGTKLEIKRTVAAPSVFIFPPSDEQLKSGTASVVCLLNNFYPREAKVQWKVDNALQSGNSQESVTEQDSKDSTYSLSSTLTLSKADYEKHKVYACEVTHQGLSSPVTKSFNRGEC | 254 | 0.891 | 0.000146 | 576000 | 601 | 1.02 | 0.000314 | 522000 |
| XENP32551 (bispecific antibody, 1+1 Fab-scFv-Fc bsAb; VH W32Y, VL WT (Kabat); also called MESO-C H1.2_L1) Fab-Fc heavy chain (anti-MSLN VH): QVQLVQSGAEVKKPGASVKVSCKASGYTFTSYYMHWVRQAPGQGLEWMGMIHPNSDNTIYYEKFQGRVTMTVDKSISTAYMELSRLRSDDTAVYYCAIIITPVVPKFDYWGQGTLVTVSSASTKGPSVFPLAPSSKSTSGGTAALGCLVKDYFPEPVTVSWNSGALTSGVHTFPAVLQSSGLYSLSSVVTVPSSSLGTQTYICNVNHKPSDTKVDKKVEPKSCDKTHTCPPCPAPPVAGPSVFLFPPKPKDTLMISRTPEVTCVVVDVKHEDPEVKFNWYVDGVEVHNAKTKPREEEYNSTYRVVSVLTVLHQDWLNGKEYKCKVSNKALPAPIEKTISKAKGQPREPQVYTLPPSREEMTKNQVSLTCDVSGFYPSDIAVEWESDGQPENNYKTTPPVLDSDGSFFLYSKLTVDKSRWEQGDVFSCSVMHEALHNHYTQKSLSLSPGK scFv-Fc heavy chain (anti-CD3 H1.30_L1.47): not shown light chain (anti-MSLN VL): DIVMTQSPDSLAVSLGERATINCKASHDVGTSVAWYQQKPGQSPKLLIYWASTRHTGVPDRFTGSGSGTDFTLTISSLQAEDVAVYFCQQYSSYPLTFGAGTKLEIKRTVAAPSVFIFPPSDEQLKSGTASVVCLLNNFYPREAKVQWKVDNALQSGNSQESVTEQDSKDSTYSLSSTLTLSKADYEKHKVYACEVTHQGLSSPVTKSFNRGEC | 1660 | 1.1 | 0.000822 | 495000 | 1600 | 1.19 | 0.000773 | 483000 |

— patent US20240279356A1 (Xencor, published 2024)
